Our source for the Kd values is article doi:10.1101/2023.02.08.527602 (bioRxiv, 2023).

In this assay the target is Soluble SorCS2 (extracellular domain of SorCS2) (UniProt Q96PQ0 51-1078). The experiment in a line: SPR. Background: In SPR one partner is held on a chip, and binding of the other changes the refractive index at the surface.
Chain of Soluble SorCS2 (extracellular domain of SorCS2) (Q96PQ0 51-1078): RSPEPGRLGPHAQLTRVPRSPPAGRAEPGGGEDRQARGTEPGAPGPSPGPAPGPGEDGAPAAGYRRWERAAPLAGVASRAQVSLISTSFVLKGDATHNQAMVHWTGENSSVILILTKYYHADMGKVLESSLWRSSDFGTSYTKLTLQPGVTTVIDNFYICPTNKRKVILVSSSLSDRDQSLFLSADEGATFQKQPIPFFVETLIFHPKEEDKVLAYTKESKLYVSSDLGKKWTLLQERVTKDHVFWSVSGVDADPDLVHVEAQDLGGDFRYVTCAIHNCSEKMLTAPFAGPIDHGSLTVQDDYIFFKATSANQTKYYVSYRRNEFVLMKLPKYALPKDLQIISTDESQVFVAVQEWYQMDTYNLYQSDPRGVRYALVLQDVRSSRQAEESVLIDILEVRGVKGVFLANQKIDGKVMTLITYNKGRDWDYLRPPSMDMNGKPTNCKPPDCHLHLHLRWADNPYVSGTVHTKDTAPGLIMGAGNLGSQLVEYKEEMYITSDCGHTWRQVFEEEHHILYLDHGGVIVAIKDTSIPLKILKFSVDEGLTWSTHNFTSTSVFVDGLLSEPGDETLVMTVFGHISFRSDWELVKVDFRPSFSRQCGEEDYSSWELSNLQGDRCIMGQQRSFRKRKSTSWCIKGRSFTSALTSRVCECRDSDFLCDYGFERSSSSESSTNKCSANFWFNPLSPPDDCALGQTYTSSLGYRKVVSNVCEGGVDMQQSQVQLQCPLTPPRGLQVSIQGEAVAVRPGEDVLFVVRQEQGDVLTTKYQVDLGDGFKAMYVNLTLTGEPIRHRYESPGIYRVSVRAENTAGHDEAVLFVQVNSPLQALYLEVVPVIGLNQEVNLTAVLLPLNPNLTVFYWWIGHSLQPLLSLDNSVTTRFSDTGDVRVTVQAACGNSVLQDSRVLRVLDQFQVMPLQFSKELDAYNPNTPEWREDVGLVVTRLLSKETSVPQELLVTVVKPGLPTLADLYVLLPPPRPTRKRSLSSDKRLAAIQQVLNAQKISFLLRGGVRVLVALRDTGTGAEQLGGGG

B1: human progranulin (hPGRN) used in SPR (ligand, UniProt P28799 18-593, looked up)
chain: TRCPDGQFCPVACCLDPGGASYSCCRPLLDKWPTTLSRHLGGPCQVDAHCSAGHSCIFTVSGTSSCCPFPEAVACGDGHHCCPRGFHCSADGRSCFQRSGNNSVGAIQCPDSQFECPDFSTCCVMVDGSWGCCPMPQASCCEDRVHCCPHGAFCDLVHTRCITPTGTHPLAKKLPAQRTNRAVALSSSVMCPDARSRCPDGSTCCELPSGKYGCCPMPNATCCSDHLHCCPQDTVCDLIQSKCLSKENATTDLLTKLPAHTVGDVKCDMEVSCPDGYTCCRLQSGAWGCCPFTQAVCCEDHIHCCPAGFTCDTQKGTCEQGPHQVPWMEKAPAHLSLPDPQALKRDVPCDNVSSCPSSDTCCQLTSGEWGCCPIPEAVCCSDHQHCCPQGYTCVAEGQCQRGSEIVAGLEKMPARRASLSHPRDIGCDQHTSCPVGQTCCPSLGGSWACCQLPHAVCCEDRQHCCPAGYTCNVKARSCEKEVVSAQPATFLARSPHVGVKDVECGEGHFCHDNQTCCRDNRQGWACCPYRQGVCCADRRHCCPAGFRCAARGTKCLRREAPRWDAPLRDPALRQLL
B1 displayed a Kd of approximately 3 nM.

One may read the Kd as a measure of binding affinity in units of concentration. A lower Kd goes with higher affinity.
